The record followed here is patent US20140271675A1 (Eli Lilly, published 2014).

The target of assay [1] is T1, mouse VEGFR1 (Mouse, UniProt P35969 23-759, limits assumed).
T1 construct: also called VEGFR1 Mouse
T1 sequence (looked up): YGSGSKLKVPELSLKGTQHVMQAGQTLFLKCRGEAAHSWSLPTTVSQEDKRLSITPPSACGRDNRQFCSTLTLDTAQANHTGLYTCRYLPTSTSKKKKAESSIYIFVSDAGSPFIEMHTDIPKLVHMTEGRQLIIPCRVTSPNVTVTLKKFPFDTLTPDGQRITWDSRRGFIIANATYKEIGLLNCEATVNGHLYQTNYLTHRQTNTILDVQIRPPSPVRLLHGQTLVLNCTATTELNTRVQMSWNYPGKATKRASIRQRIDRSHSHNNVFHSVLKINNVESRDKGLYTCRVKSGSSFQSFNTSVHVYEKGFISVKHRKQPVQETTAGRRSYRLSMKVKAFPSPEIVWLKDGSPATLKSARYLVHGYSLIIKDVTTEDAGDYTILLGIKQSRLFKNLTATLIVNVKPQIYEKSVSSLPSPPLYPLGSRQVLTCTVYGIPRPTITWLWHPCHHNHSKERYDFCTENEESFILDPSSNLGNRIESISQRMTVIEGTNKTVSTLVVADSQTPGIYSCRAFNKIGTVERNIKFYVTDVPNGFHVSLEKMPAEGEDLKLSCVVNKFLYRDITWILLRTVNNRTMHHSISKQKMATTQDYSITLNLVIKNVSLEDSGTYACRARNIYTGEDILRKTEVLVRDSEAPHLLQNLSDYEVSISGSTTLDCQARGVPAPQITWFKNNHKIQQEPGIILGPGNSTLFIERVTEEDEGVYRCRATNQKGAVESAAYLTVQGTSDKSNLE
Description: SPR (Biacore), 25 C, n=1.

Assay [2] addresses T2, human VEGFR2 (Human, UniProt P35968 20-764, limits assumed).
T2 construct: also called VEGFR2 Human
In words: SPR (Biacore), 25 C.

For assay [3], the target named is T3, mouse VEGFR3 (Mouse, UniProt P35917 25-775, limits assumed).
T3 construct: also called VEGFR3 Mouse
T3 sequence (looked up): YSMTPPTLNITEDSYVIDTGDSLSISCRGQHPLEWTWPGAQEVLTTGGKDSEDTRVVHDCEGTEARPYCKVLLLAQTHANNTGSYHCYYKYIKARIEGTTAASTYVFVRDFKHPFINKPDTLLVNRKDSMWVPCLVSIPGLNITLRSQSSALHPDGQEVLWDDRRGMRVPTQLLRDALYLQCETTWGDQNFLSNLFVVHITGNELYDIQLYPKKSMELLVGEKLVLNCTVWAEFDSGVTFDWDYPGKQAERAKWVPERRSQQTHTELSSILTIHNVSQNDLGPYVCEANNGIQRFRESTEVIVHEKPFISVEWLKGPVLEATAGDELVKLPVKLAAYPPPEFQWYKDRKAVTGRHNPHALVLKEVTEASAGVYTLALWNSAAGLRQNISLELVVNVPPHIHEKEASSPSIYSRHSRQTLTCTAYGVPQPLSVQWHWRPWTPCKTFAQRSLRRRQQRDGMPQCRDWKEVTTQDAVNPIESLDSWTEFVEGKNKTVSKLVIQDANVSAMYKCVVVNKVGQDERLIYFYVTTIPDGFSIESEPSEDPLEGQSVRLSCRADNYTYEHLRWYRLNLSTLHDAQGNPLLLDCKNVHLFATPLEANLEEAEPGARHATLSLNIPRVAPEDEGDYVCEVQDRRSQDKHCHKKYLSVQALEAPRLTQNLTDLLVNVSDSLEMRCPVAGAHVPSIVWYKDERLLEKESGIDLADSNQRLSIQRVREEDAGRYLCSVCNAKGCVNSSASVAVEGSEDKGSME
In words: SPR (Biacore), 25 C. For orientation: SPR reads the build-up and loss of mass on a sensor chip optically.

Assay [4] addresses T4, mouse VEGFR2 (Mouse, UniProt P35918 20-762, limits assumed).
T4 construct: also called VEGFR2 Mouse
In words: SPR (Biacore), 25 C.

For assay [5], the target named is T5, human VEGFR1 (SPR analyte/ligand) (human, UniProt P17948 27-758, limits assumed).
T5 construct: also called VEGFR1 Human; Flt-1
In words: SPR (Biacore), 25 C.

Assay [6] deals with T6, human VEGFR3 (Human, UniProt P35916 25-776, limits assumed).
T6 construct: also called VEGFR3 Human
T6 sequence (looked up): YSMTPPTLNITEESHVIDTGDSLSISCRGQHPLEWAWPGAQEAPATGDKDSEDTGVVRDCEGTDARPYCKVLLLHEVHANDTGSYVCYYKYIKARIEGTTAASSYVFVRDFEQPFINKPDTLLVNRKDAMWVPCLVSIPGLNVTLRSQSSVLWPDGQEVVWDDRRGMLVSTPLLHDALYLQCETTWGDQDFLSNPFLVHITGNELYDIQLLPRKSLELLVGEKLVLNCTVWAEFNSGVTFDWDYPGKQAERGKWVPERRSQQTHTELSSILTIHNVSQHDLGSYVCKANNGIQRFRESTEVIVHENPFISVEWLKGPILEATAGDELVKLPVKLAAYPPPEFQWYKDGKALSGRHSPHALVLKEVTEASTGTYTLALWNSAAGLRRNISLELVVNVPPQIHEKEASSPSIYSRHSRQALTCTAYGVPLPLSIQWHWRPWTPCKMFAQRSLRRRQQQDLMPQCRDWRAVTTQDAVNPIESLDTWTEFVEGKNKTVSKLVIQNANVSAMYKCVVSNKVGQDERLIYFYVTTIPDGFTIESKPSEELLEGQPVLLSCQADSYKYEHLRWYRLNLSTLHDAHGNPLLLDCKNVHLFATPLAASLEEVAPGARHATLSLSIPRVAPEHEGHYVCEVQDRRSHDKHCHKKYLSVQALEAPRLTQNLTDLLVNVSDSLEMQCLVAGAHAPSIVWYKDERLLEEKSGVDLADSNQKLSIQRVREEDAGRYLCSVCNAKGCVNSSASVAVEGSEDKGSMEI
In words: SPR (Biacore), 25 C.

The target in assay [7] is T1, mouse VEGFR1. In words: SPR (Biacore), 25 C, n=4.

T2 sequence (P35968 20-764 limits assumed): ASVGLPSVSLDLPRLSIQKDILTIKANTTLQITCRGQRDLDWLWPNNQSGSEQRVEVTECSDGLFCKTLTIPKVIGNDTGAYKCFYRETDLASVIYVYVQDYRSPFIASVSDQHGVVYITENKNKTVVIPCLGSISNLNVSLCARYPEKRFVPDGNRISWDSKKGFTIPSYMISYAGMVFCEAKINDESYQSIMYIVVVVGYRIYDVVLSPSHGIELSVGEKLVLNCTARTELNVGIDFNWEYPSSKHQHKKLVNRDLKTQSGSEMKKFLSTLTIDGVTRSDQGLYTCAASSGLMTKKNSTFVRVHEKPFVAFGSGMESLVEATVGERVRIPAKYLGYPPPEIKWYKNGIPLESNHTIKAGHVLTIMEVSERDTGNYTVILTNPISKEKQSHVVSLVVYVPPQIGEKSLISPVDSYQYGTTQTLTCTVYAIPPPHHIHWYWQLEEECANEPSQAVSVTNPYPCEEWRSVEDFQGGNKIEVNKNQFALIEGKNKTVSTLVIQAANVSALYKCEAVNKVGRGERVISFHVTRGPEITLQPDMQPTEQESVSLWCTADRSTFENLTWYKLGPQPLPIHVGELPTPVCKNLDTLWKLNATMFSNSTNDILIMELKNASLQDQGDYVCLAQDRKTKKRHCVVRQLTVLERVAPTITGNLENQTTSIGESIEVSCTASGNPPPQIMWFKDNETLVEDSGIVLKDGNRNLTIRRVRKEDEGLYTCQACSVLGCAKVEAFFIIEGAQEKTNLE
T5 sequence (P17948 27-758 limits assumed): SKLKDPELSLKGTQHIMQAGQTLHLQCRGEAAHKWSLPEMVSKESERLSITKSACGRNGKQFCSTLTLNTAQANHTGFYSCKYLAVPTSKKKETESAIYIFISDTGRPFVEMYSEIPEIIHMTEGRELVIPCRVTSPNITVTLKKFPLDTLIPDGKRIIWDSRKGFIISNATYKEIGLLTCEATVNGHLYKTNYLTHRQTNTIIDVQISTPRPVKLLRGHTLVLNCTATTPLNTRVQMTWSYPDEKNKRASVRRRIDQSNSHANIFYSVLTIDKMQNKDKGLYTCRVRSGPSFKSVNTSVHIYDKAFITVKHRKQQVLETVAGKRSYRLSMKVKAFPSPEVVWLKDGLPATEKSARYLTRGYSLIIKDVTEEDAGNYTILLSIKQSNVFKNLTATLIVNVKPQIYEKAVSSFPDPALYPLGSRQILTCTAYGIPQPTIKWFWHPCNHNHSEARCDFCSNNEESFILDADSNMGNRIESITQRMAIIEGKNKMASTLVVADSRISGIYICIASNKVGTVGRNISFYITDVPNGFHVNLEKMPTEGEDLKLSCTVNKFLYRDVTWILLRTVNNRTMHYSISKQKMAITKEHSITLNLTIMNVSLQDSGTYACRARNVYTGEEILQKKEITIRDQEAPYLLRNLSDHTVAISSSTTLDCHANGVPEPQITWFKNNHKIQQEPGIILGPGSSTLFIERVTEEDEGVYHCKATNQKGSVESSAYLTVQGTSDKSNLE
T4 sequence (P35918 20-762 limits assumed): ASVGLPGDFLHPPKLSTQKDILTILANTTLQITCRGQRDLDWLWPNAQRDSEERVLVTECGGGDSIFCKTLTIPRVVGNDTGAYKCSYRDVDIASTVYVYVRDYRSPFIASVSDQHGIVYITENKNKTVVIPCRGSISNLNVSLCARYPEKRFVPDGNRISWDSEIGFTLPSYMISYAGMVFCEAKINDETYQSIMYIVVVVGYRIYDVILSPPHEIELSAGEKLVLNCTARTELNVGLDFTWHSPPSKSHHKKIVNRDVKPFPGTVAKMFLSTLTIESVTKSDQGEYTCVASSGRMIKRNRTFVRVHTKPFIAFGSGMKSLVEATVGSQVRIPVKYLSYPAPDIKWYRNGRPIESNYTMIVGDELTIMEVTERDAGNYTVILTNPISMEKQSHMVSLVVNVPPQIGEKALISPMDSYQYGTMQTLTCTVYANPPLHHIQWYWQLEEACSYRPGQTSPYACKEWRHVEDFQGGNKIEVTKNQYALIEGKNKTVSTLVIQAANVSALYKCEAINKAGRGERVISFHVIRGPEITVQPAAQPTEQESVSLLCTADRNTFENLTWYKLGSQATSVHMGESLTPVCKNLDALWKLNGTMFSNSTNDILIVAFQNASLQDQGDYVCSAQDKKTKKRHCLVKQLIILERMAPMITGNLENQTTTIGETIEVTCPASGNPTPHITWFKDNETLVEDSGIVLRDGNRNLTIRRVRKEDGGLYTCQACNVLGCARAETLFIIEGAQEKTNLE

B1: Antibody III (antibody)
heavy: QVQLKESGPGLVRPSETLSLTCTVSGFSLSDYSLSWVRRPSGKGPEWLGRLWFDGDTTYNSAFKSRLTISRDTSKDQVFLKMNSLQTDDTGTYYCTRDDRDFDYWGQGVMVTVSSAETTAPSVYPLAPGTALKSNSMVTLGCLVKGYFPEPVTVTWNSGALSSGVHTFPAVLQSGLYTLTSSVTVPSSTWPSQTVTCNVAHPASSTKVDKKIVPRNCGGDCKPCICTGSEVSSVFIFPPKPKDVLTITLTPKVTCVVVDISQDDPEVHFSWFVDDVEVHTAQTRPPEEQFNSTFRSVSELPILHQDWLNGRTFRCKVTSAAFPSPIEKTISKPEGRTQVPHVYTMSPTKEEMTQNEVSITCMVKGFYPPDIYVEWQMNGQPQENYKNTPPTMDTDGSYFLYSKLNVKKEKWQQGNTFTCSVLHEGLHNHHTEKSLSHSPGK
light: DIVMTQTPVSMSVSLGGQVSISCRSSQSLVNNNGNTYLSWYIQKPSQSPQLLIYKVSNRVSGISDRFSGSGSGTDFTLKINKIEPDDLGVYYCGQNTQYPLTFGSGTKLEIKRADAAPTVSIFPPSTEQLATGGASVVCLMNNFYPRDISVKWKIDGTERRDGVLDSVTDQDSKDSTYSMSSTLSLTKADYESHNLYTCEVVHKTSSSPVVKSFNRNEC
notes: also called Ab III; Antibody 3
In assay [1], B1 registered a Kd of 0.032 nM and a koff of 1.87e-05 s⁻¹.

B2: Antibody IV (antibody, mouse IgG1, kappa)
heavy: QVQLKESGPGLVRPSETLSLTCTVSGFSLSDYSLSWVRRPSGKGPEWLGRLWFDGDTTYNSAFKSRLTISRDTSKDQVFLKMNSLQTDDTGTYYCTRDDRDFDYWGQGVMVTVSSAKTTPPSVYPLAPGSAAQTNSMVTLGCLVKGYFPEPVTVTWNSGSLSSGVHTFPAVLQSDLYTLSSSVTVPSSTWPSETVTCNVAHPASSTKVDKKIVPRDCGCKPCICTVPEVSSVFIFPPKPKDVLTITLTPKVTCVVVDISKDDPEVQFSWFVDDVEVHTAQTQPREEQFNSTFRSVSELPIMHQDWLNGKEFKCRVNSAAFPAPIEKTISKTKGRPKAPQVYTIPPPKEQMAKDKVSLTCMITDFFPEDITVEWQWNGQPAENYKNTQPIMDTDGSYFVYSKLNVQKSNWEAGNTFTCSVLHEGLHNHHTEKSLSHSPG
light: DIVMTQTPVSMSVSLGGQVSISCRSSQSLVNNNGNTYLSWYIQKPSQSPQLLIYKVSNRVSGISDRFSGSGSGTDFTLKINKIEPDDLGVYYCGQNTQYPLTFGSGTKLEIKRADAAPTVSIFPPSSEQLTSGGASVVCFLNNFYPKDINVKWKIDGSERQNGVLNSWTDQDSKDSTYSMSSTLTLTKDEYERHNSYTCEATHKTSTSPIVKSFNRNEC
notes: also called Ab IV; Antibody 4
With B2, the binding result in assay [2], in assay [3], in assay [4], in assay [5] and in assay [6] was “no binding (tested: ~200 nM)” throughout. Further, the Kd in assay [7] is at most 0.018 nM. In assay [7], the koff is under 1e-05 s⁻¹.

For orientation: Kd means the free concentration of one partner at which half of the binding sites on the other are occupied at equilibrium, for simple one-to-one binding. What is called koff is the rate constant with which the complex falls apart. A lower koff goes with a long-lived complex.
